Results from US20240101646A1 (VANDERBILT UNIVERSITY, published 2024).

Biological target: T1, SARS-CoV-2 NTD (SARS-CoV-2, UniProt P0DTC2 14-305)
T1 construct: domain: NTD
Test: ELISA, antigen plated at 2 µg/mL (FIG. 12A)

B1: antibody 5317-10 (antibody, V domains shown)
VH: EVQLVQSGAEVKKPGESLTISCKASGYRFTSNWITWVRQMPGKGLEWMGRIDPDDPYSNSSPSFQGHATLSLDKAINTAYLHWSSLKASDTAMYYCARVNRVGDGPDFWGQGTLVTVSS
VL: DIVMTQSPLSLPVTPGEPASISCRSSQSLLFGNGYTYLNWYLQKPGQSPQLLIYLGSNRASGVPDRFSVSGSGTDFTLIISRVEAEDVGVYFCMQALQTPWTFGQGTKVEIK
binding result: no binding
